The test deals with HLA-A*02:01 (Homo sapiens, UniProt P04439, D140Y/D185E/D98H/E176V/E277Q/G131W/G231S/I119V/I121R/I166T/I218V/L300P/L318F/N151K/N90K/P208A/P217A/Q86G/Q94H/R138H/R169H/T345S). The experiment in a line: MHC binding assay (UV-ligand exchange, beta2m ELISA). Conditions: binding to HLA-A*02:01, β2m ELISA. The text has this:
Candidate peptides for T cell based therapies according to the present invention were further tested for their MHC binding capacity (affinity). The individual peptide-MHC complexes were produced by UV-ligand exchange, where a UV-sensitive peptide is cleaved upon UV-irradiation, and exchanged with the peptide of interest as analyzed. Only peptide candidates that can effectively bind and stabilize the peptide-receptive MHC molecules prevent dissociation of the MHC complexes. To determine the yield of the exchange reaction, an ELISA was performed based on the detection of the light chain (β2m) of stabilized MHC complexes. The assay was performed as generally described in Rodenko et al. (Rodenko et al., 2006).
96 well MAXISorp plates (NUNC) were coated over night with 2 ug/ml streptavidin in PBS at room temperature, washed 4× and blocked for 1 h at 37° C. in 2% BSA containing blocking buffer. Refolded HLA-A*02:01/MLA-001 monomers served as standards, covering the range of 15-500 ng/ml. Peptide-MHC monomers of the UV-exchange reaction were diluted 100 fold in blocking buffer. Samples were incubated for 1 h at 37° C., washed four times, incubated with 2 ug/ml HRP conjugated anti-82m for 1 h at 37° C., washed again and detected with TMB solution that is stopped with […]. Absorption was measured at 450 nm. Candidate peptides that show a high exchange yield (preferably higher than 50%, most preferred higher than 75%) are generally preferred for a generation and production of antibodies or fragments thereof, and/or T cell receptors or fragments thereof, as they show sufficient avidity to the MHC molecules and prevent dissociation of the MHC complexes.

For the substance “91 (LLPSIFLMV; listed as Homo sapiens) [compound 91]”, the “Peptide exchange (MHC class I binding score, peptide exchange yield)” value (shortened to “Peptide exchange”) is reported as “++ (≥20% = ++)”.

Consider “271 (VLIEYNFSI; listed as Homo sapiens) [compound 271]”, for which the “Peptide exchange” value was “+++ (≥50 = +++)”.

Turning to “115 (ILHGEVNKV; listed as Homo sapiens) [compound 115]”, the “Peptide exchange” value is given as “++ (≥20% = ++)”.

“53 (AQHLSTLLL; listed as Homo sapiens) [compound 53]”: the “Peptide exchange” value was “+ (≥10% = +)”.

With “142 (LLDAAHASI; listed as Homo sapiens) [compound 142]”, the “Peptide exchange” value is reported as “++ (≥20% = ++)”.

For the substance “130 (QLYGSAITL; listed as Homo sapiens) [compound 130]”, the “Peptide exchange” value is reported as “+++ (≥50 = +++)”.

On to “98 (FVQEKIPEL; listed as Homo sapiens) [compound 98]”, for which the “Peptide exchange” value is “+++ (≥50 = +++)”.

With “177 (ALINVLNAL; listed as Homo sapiens) [compound 177]”, the “Peptide exchange” value is “+++ (≥50 = +++)”.

On to “5 (GLVDIMVHL; listed as Homo sapiens) [compound 5]”, for which the “Peptide exchange” value is recorded as “+++ (≥50 = +++)”.

As to “110 (QIQGQVSEV; listed as Homo sapiens) [compound 110]”, the “Peptide exchange” value is given as “++ (≥20% = ++)”.

In the case of “171 (LLLLDVPTA; listed as Homo sapiens) [compound 171]”, the “Peptide exchange” value was “++ (≥20% = ++)”.

For the substance “47 (GLNGFNVLL; listed as Homo sapiens) [compound 47]”, the “Peptide exchange” value is recorded as “+++ (≥50 = +++)”.

As for “250 (LMQDSRLYL; listed as Homo sapiens) [compound 250]”, the “Peptide exchange” value is “+++ (≥50 = +++)”.

In the case of “42 (KQMSISTGL; listed as Homo sapiens) [compound 42]”, the “Peptide exchange” value is given as “++ (≥20% = ++)”.

For “114 (LLFPSDVQTL; listed as Homo sapiens) [compound 114]”, the “Peptide exchange” value is reported as “++ (≥20% = ++)”.

In the case of “111 (AQLEGKLVSI; listed as Homo sapiens) [compound 111]”, the “Peptide exchange” value is given as “+++ (≥50 = +++)”.

For the substance “252 (SLMEKNQSL; listed as Homo sapiens) [compound 252]”, the “Peptide exchange” value was “++ (≥20% = ++)”.

On to “276 (RMPTVLQCV; listed as Homo sapiens) [compound 276]”, for which the “Peptide exchange” value is reported as “+++ (≥50 = +++)”.

As for “125 (AALEVLAEV; listed as Homo sapiens) [compound 125]”, the “Peptide exchange” value is “+++ (≥50 = +++)”.

“170 (FIAAVVEKV; listed as Homo sapiens) [compound 170]”: the “Peptide exchange” value was “++ (≥20% = ++)”.

With “103 (YLADTVQKL; listed as Homo sapiens) [compound 103]”, the “Peptide exchange” value was “++ (≥20% = ++)”.

With “40 (KIWEELSVLEV; listed as Homo sapiens) [compound 40]”, the “Peptide exchange” value is on record as “+++ (≥50 = +++)”.

Take “137 (KLIYKDLVSV; listed as Homo sapiens) [compound 137]”: the “Peptide exchange” value is listed as “++ (≥20% = ++)”.

Regarding “139 (IILENIQSL; listed as Homo sapiens) [compound 139]”, the “Peptide exchange” value is recorded as “+++ (≥50 = +++)”.

Turning to “159 (QLGPVPVTI; listed as Homo sapiens) [compound 159]”, the “Peptide exchange” value is given as “+++ (≥50 = +++)”.

With “38 (VLQQESNFL; listed as Homo sapiens) [compound 38]”, the “Peptide exchange” value is “++ (≥20% = ++)”.

Turning to “31 (GLLETTGLLAT; listed as Homo sapiens) [compound 31]”, the “Peptide exchange” value is “+++ (≥50 = +++)”.

Turning to “268 (SLDKDIVAL; listed as Homo sapiens) [compound 268]”, the “Peptide exchange” value is given as “++ (≥20% = ++)”.

As to “68 (QLMNLIRSV; listed as Homo sapiens) [compound 68]”, the “Peptide exchange” value is given as “+++ (≥50 = +++)”.

In the case of “167 (LVVDEGSLVSV; listed as Homo sapiens) [compound 167]”, the “Peptide exchange” value is reported as “+++ (≥50 = +++)”.

Turning to “211 (LLTTVLINA; listed as Homo sapiens) [compound 211]”, the “Peptide exchange” value is given as “+++ (≥50 = +++)”.

In the case of “208 (HLNNDRNPL; listed as Homo sapiens) [compound 208]”, the “Peptide exchange” value is given as “++ (≥20% = ++)”.

As to “222 (LLTGVFAQL; listed as Homo sapiens) [compound 222]”, the “Peptide exchange” value is reported as “++ (≥20% = ++)”.

For “99 (TLFGIQLTEA; listed as Homo sapiens) [compound 99]”, the “Peptide exchange” value is recorded as “+++ (≥50 = +++)”.

For “92 (RLFEEVLGV; listed as Homo sapiens) [compound 92]”, the “Peptide exchange” value is given as “++++ (≥75% = ++++)”.

In the case of “206 (GLDAFRIFL; listed as Homo sapiens) [compound 206]”, the “Peptide exchange” value is recorded as “++++ (≥75% = ++++)”.

Turning to “64 (SLYAGSNNQV; listed as Homo sapiens) [compound 64]”, the “Peptide exchange” value is “++ (≥20% = ++)”.

As to “128 (SILTNISEV; listed as Homo sapiens) [compound 128]”, the “Peptide exchange” value is reported as “++ (≥20% = ++)”.

Regarding “79 (TVLEEIGNRV; listed as Homo sapiens) [compound 79]”, the “Peptide exchange” value is “++ (≥20% = ++)”.

Turning to “28 (IKVTDPQLLEL; listed as Homo sapiens) [compound 28]”, the “Peptide exchange” value is “++ (≥20% = ++)”.

In the case of “94 (YLDEVAFML; listed as Homo sapiens) [compound 94]”, the “Peptide exchange” value is listed as “+++ (≥50 = +++)”.

As for “134 (SLYKSFLQL; listed as Homo sapiens) [compound 134]”, the “Peptide exchange” value is on record as “++ (≥20% = ++)”.

Turning to “164 (MLIIRVPSV; listed as Homo sapiens) [compound 164]”, the “Peptide exchange” value is recorded as “+++ (≥50 = +++)”.

As to “129 (KMASKVTQV; listed as Homo sapiens) [compound 129]”, the “Peptide exchange” value is on record as “++ (≥20% = ++)”.

In the case of “55 (HLFDKIIKI; listed as Homo sapiens) [compound 55]”, the “Peptide exchange” value is reported as “+++ (≥50 = +++)”.

Consider “19 (KVFELDLVTL; listed as Homo sapiens) [compound 19]”, for which the “Peptide exchange” value is listed as “++ (≥20% = ++)”.

With “65 (SLSEKSPEV; listed as Homo sapiens) [compound 65]”, the “Peptide exchange” value is reported as “++ (≥20% = ++)”.

These data come from patent US10081665B2, “Peptides and combination of peptides for use in immunotherapy against various tumors” (immatics biotechnologies GmbH, priority 2015, dated 2018).
